Test results taken from patent US20240376149A1, “Novel Modulators of GABABR1a” (VIB VZW, priority 2021, published 2024).
Where two headings read alike, the source gives them in different places. *1 amine or outer side, *2 acyl side, *3 side chain or, on linkers, in order; H or OH if unused. Where a SMILES comes first, the peptide text is derived from it. Where no end group is shown, it is not given here. [ ]: non-standard residue; d: D form. NEtW = N-ethyl-tryptophan (F149), CCN([C@@H](Cc1c[nH]c2ccccc12)C(=O)[*:2])[*:1]; X2 = O=C([C@H](CC1CCC(F)(F)CC1)N[*:1])[*:2]; 2Nal = N[C@@H](Cc1ccc2ccccc2c1)C(=O)O; hCha = N[C@@H](CCC1CCCCC1)C(=O)O; Cha = N[C@@H](CC1CCCCC1)C(=O)O; F182 = not defined here; F72 = not defined here

What was measured:
[1] = biological target: T1, HEK293 cells expressing the ectodomain of GABABR1a comprising SD1 (Homo sapiens, UniProt Q9UBS5); assay: Flow-cytometry cell-based binding assay, competition with biotinylated 9-mer; conditions: peptide at 100 μM, inhibition of biotin-9mer (10 μM) binding
T1 construct: HEK293 were transfected with plasmids encoding the ectodomain of GABABR1a (as in Rice et al., 2019); expressed in transfected cells; host or cells: HEK293
Description: HEK cells expressing GABABR1a-SD1 were incubated with peptides of the application and the binding of 9-mer in the presence of the peptides was measured. The 9-mer peptide is biotinylated and detected with a commercial antibody.
(§1) Next, the top ranking compounds were tested in a cell-based binding assay. HEK293 cells were transformed to express the ectodomain of GABABR1a comprising SD1. In this cell-based assay, SD1 is expressed on the GABABR1a ectodomain and can adopt a more physiological conformation, compared to the purified SD1 protein used in the primary assay (FP assay).
(§2) HEK293 were transfected with plasmids encoding the ectodomain of GABABR1a (as in Rice et al., 2019), carrying a His-tag at the N-terminal. After 24 h of expression, cells were harvested and adjusted to a concentration of 1×10^6 cells/mL in ice-cold 2% FBS/PBS. Incubation with each peptide (in dose-response curve) was carried out at 4° C. for 1 h, followed by incubation with the biotion-9mer (10 μM) peptide during 30 min. Detection antibodies recognizing either His protein or biotin were added for a period of 30 min. The assay plate containing the cells was loaded into the Attune NxT Cytometer, parameters were adjusted accordingly with the cell type and signal intensity. In each experiment, positive and negative control were added to the plate.

[2] = biological target: T2, GABABR1a-SD1 (SD1-FITC-9mer complex) (Homo sapiens, UniProt Q9UBS5); assay: Fluorescence polarization (FP) competition assay with FITC-9mer; assay type: binding; conditions: peptide at 50 μM; inhibition of FITC-9mer binding to SD1
T2 construct: The synthetic gene encoding for residues 26-96 of the Sushi1 protein was cloned into a pFloat-SUMO vector; His-SUMO (with 3C protease site) (N, cleaved yes); made in house; host or cells: E. coli BL21(DE3)
Description: Intrigued by the surprising results of the 5-mer, it was decided to set up a medium- to high-throughput screen to optimize the 5-mer sequence. Several assays were tested to find a reproducible, robust and cost-effective assay that is also suitable for high-throughput screening. A fluorescence polarization (FP) assay was selected. FP measurements are well-known for receptor binding assays. The assay is based on the rotational movement of fluorescently labelled molecules in solution. […] The FP assay was optimized using the FITC labelled sAPP 9-mer (FIG. 1).
(§3) To screen for GABABR1a binders using unlabelled test compounds, the assay was turned into a competition assay using FITC-9mer. […] To validate this inhibitor assay, the IC50 values were determined of the 17-mer, 9-mer, 5-mer as well as those from 3 negative controls: 10-mer, scrambled 17-mer and a scrambled 9-mer (FIG. 2).
(§4) To determine if the peptides of this application were able to disrupt the SD1-9-mer complex, each peptide (in single point or dose-response curve) tested was incubate with SD1 protein for 1 h at RT. After this initially incubation, FITC-9mer was added to the previous mix and incubated during 2 h at RT. The signal intensity was measure in an appropriate plate reader using the following settings: Number of flashes per well: 200; Excitation: F482-16; Dichroic filter: FLP 504; Emission A F530-40; Gain A: 738, Gain B: 736. The assay was conducted in a 384-well plate.

[3] = biological target: T3, Ectodomain of GABABR1a comprising SD1, expressed on HEK293 cells with N-terminal His-tag (human, UniProt Q9UBS5 20-591, limits assumed); assay: flow cytometry competition vs biotin-9mer on HEK293 cells expressing GABABR1a ectodomain
T3 construct: extracellular domain; also called GABABR1a-SD1 (on cells); GABABR1a ectodomain
Description: as §1, with “assay). Before testing the active compounds, it was confirmed that 9-mer (tagged with Biotin) binds specifically to cells expressing GABABR1a-SD1 and not GABABR1b.” for “assay).”
as §2

[4] = biological target: T4, Sushi domain 1 of the human GABA B1a receptor (human, UniProt Q9UBS5 26-96); assay: ITC, peptide titrated into purified SD1
T4 construct: Purified recombinant protein from E. coli; also called SD1; GABABR1a-SD1
Description: (§5) The Sushi-1 protein was dialysed overnight to PBS buffer and diluted to 30 μM in the same buffer. The peptides were resuspended in PBS at a stock concentration of 3 mM and diluted further in the same buffer to 300 μM. ITC experiments were performed on a Microcal ITC200 device. Titrations comprised 26×1.5 μL injections of peptide into protein, with 90 s intervals. An initial injection of ligand (0.5 μL) was made and discarded during data analysis. The data were fitted to a single binding site model using the Microcal LLC ITC₂₀₀. Original software provided by the manufacturer.

[5] = biological target: T4, Sushi domain 1 of the human GABA B1a …; assay: FP competition vs FITC-9mer on purified SD1
Description: as §3
Based on structural information of DIYWS-SD1 and DIWWS-SD1 co-crystals, 48 peptides containing non-natural residues were manually designed and checked for binding to the GABABR1a SD1 in the FP assay at a concentration of 50 μM. These non-natural peptides were categorized based on the IC50 values obtained in the FP assay (Table 3). […] The listed non-natural 5-mers all share D-aspartate was on position 1 (residue position 4 of the 9-mer), L-isoleucine on position 2 (residue position 5 of the 9-mer), L-tryptophane on position 4 (residue position 7 of the 9-mer) and L-serine on position 5 (residue position 8 of the 9-mer), while position 3 is selected from the list consisting of L-tyrosine, isoethylmethyl-benzene, 6-chloro-3-methyl-1H-indole, methylcyclohexane, ethylcyclohexane, 2-naphthalene, ethylbenzene, 1,1-difluoro-4-cyclohexyl, 4-methyl-1-methoxy-2-methylbenzene, 1-chloro-4-methylbenzene, 4-methylphenyl-methanol, 3-methylbenzoic acid and 4-methylaniline.

[6] = biological target: T4, Sushi domain 1 of the human GABA B1a …; assay: FP competition vs FITC-9mer on purified SD1; remark: listed apart in the source
Description: Next, 35 variants of the DVWWG 5-mer peptide containing natural residues were tested in the above described FP assay. The peptides were tested at a concentration of 50 μM.
as §4

[7] = biological target: T4, Sushi domain 1 of the human GABA B1a …; assay: ITC, peptide titrated into purified SD1; remark: listed apart in the source
Description: First, we wondered whether the wild-type sAPP 9-mer peptide would be the optimal sequence in terms of SD1 binding or whether sequence variants of the sAPP 9-mer would have improved binding to the GABABR1a-SD1. Therefore a panel of single and double sAPP 9-mer mutants was generated. An alanine scan was performed for the residues on position 1 to position 7. Based on an ITC assay, these single mutant peptides bound the SD1 with the same or slightly higher Kd (Table 1). Also the double mutants VIB_P04, VIB_P05 and VIB_P19 bound with a similar Kd to SD1 compared to the wild-type 9-mer. We have also tested the effect of the D-isomer of the amino residues on position 1 to 4, in single or multiple combinations. None of the mutations had strong effects on the measured Kd (Table 1). We therefore conclude that the wild-type sAPP 9-mer is already optimized but that many variants bind as good to SD1 and thus will modulate GABABR1a in a similar manner.
as §5

T4 sequence (Q9UBS5 26-96 limits assumed): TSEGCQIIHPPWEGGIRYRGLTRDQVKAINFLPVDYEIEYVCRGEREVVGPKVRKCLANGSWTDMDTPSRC
T2 sequence (Q9UBS5 26-96, one chain of several): as the sequence (Q9UBS5 26-96 limits assumed) above
T3 sequence (Q9UBS5 20-591 limits assumed): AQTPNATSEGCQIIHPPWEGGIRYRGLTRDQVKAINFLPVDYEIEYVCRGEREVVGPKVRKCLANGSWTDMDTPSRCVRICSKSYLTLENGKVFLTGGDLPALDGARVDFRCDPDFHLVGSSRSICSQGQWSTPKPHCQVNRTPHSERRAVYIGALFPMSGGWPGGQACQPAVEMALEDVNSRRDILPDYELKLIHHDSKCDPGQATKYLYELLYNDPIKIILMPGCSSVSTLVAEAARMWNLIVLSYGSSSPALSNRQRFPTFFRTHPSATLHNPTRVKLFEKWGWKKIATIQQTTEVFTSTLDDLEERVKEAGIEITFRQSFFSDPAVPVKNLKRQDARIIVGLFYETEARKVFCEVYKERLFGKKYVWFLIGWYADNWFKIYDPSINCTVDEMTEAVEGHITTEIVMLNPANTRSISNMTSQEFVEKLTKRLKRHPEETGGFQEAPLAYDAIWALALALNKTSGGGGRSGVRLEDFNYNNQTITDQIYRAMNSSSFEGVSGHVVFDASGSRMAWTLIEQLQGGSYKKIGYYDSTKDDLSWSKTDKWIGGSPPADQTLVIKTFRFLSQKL
T1 sequence (Q9UBS5 20-591 limits assumed): as above

## CC[C@H](C)[C@H](NC(=O)[C@H](N)CC(=O)O)C(=O)N[C@@H](Cc1ccc2ccccc2c1)C(=O)N[C@@H](Cc1c[nH]c2ccccc12)C(=O)N[C@@H](CO)C(=O)O [VIB-0068895] (H-[dD]I[2Nal]WS-OH; N-terminus and C-terminus assumed)
[1]
  inhibition at 100 µM: 77%
[2]
  inhibition at 50 µM: 96.3%

## CC[C@H](C)[C@H](NC(=O)[C@H](N)CC(=O)O)C(=O)N[C@@H](CCC1CCCCC1)C(=O)N[C@@H](Cc1c[nH]c2ccccc12)C(=O)N[C@@H](CO)C(=O)O [VIB-0068903] (H-[dD]I[hCha]WS-OH; N-terminus and C-terminus assumed)
[1]
  inhibition at 100 µM: 76%
[2]
  inhibition at 50 µM: 93.9%

## CC[C@H](C)[C@H](NC(=O)[C@H](N)CC(=O)O)C(=O)N[C@@H](CC1CCCCC1)C(=O)N[C@@H](Cc1c[nH]c2ccccc12)C(=O)N[C@@H](CO)C(=O)O [VIB-0068905] (H-[dD]I[Cha]WS-OH; N-terminus and C-terminus assumed)
[1]
  inhibition at 100 µM: 68.3%
[2]
  inhibition at 50 µM: 94.8%

## CC[C@H](C)[C@H](NC(=O)[C@H](N)CC(=O)O)C(=O)N[C@@H](CC1CCC(F)(F)CC1)C(=O)N[C@@H](Cc1c[nH]c2ccccc12)C(=O)N[C@@H](CO)C(=O)O [VIB-0068907] (H-[dD]I[X2]WS-OH; N-terminus and C-terminus assumed)
[1]
  inhibition at 100 µM: 47.2%
[2]
  inhibition at 50 µM: 86.2%

B1: VIB-0068895 (peptide)
peptide: DIXWS
modifications: not fully specified; D-aspartic acid at position 1; position 3 (X) is the non-natural residue F195 = 2-naphtalene
notes: Peptidomimetic 5-mer; X marks the non-natural residue
[3]
  % inhibition 100 µM: 77%
  IC50: 43.3 µM
[4]
  Kd: 1.39 µM
[5]
  % inhibition 50 µM: 96.3%
  IC50: 11.1 µM

B2: VIB_P33 (peptide)
peptide: DVWWG
notes: also called DVWWG 5-mer; wild-type 5-mer
[6]
  % inhibition 50 µM: 66%
[4]
  Kd: 9.09 µM
[7]
  Kd: 9.09 µM

## DIHWG [VIB_P36]
[6]
  % inhibition 50 µM: 25.5%
[4]
  Kd: 18.4 µM

## DIWWS (also called VIB_34; DIWWS) [VIB_P34]
[6]
  % inhibition 50 µM: 81.9%
[4]
  Kd: 1.02 µM

B3: VIB-0068904 (peptide)
peptide: [dD]I[NEtW]WS
notes: Peptidomimetic 5-mer; position 3 is written W for N-ethyl-tryptophan
[4]
  Kd: 1.02 µM
[5]
  % inhibition 50 µM: 26.7%

B4: VIB-0068905 (peptide)
peptide: DIXWS
modifications: D-aspartic acid at position 1; position 3 (X) is the non-natural residue F15 = methylcyclohexane
notes: as for B1
[3]
  % inhibition 100 µM: 68.3%
  IC50: 78.8 µM
[4]
  Kd: 0.25 µM
[5]
  % inhibition 50 µM: 94.8%
  IC50: 8.11 µM

## DDSDVWW [VIB_P06]
[7]
  Kd: 25.8 µM

B5: VIB-0068894 (peptide)
peptide: DIXWS
modifications: D-aspartic acid at position 1; position 3 (X) is the non-natural residue F126 = 6-chloro-3-methyl-1H-indole
notes: as for B1
[3]
  % inhibition 100 µM: 84.2%
  IC50: 28.7 µM
[4]
  Kd: 0.34 µM
[5]
  % inhibition 50 µM: 96.8%
  IC50: 7.12 µM

## DDS[dD]VWWGG (Printed as DDS{D-ASP}VWWGG) [VIB_P11]
[7]
  Kd: 6.21 µM

## DD[dS]DVWWGG (Printed as DD{D-SER}DVWWGG) [VIB_P10]
[7]
  Kd: 8.47 µM

## DASDVWWGG [VIB_P01]
[7]
  Kd: 12.2 µM

## ADSDVWWGG [VIB_P12]
[7]
  Kd: 7.58 µM

## DASAVWWGG [VIB_P04]
[7]
  Kd: 5.85 µM

## DDADVWWGG [VIB_P02]
[7]
  Kd: 3.68 µM

## DDSAVWWGG [VIB_P03]
[7]
  Kd: 10 µM

## AASDVWWGG [VIB_P19]
[7]
  Kd: 18.1 µM

B6: VIB-0068911 (peptide)
peptide: [dD]I[F72]WS
modifications: not fully specified; reading uncertain
notes: as for B1
[3]
  % inhibition 100 µM: 90%
  IC50: 38 µM
[4]
  Kd: 0.54 µM
[5]
  % inhibition 50 µM: 98.1%
  IC50: 6.54 µM

B7: VIB-0068903 (peptide)
peptide: DIXWS
modifications: D-aspartic acid at position 1; position 3 (X) is the non-natural residue F141 = ethylcyclohexane
notes: as for B1
[3]
  % inhibition 100 µM: 76%
  IC50: 154 µM
[4]
  Kd: 0.93 µM
[5]
  % inhibition 50 µM: 93.9%
  IC50: 8.22 µM

## [dD]DSDVWWGG [VIB_P08]
[7]
  Kd: 6.45 µM

B8: VIB-0068907 (peptide)
peptide: [dD]I[F182]WS
modifications: not fully specified; reading uncertain
notes: as for B1
[3]
  % inhibition 100 µM: 47.2%
  IC50: 49.2 µM
[4]
  Kd: 2.47 µM
[5]
  % inhibition 50 µM: 86.2%
  IC50: 12.6 µM

B9: VIB-0068910 (peptide)
peptide: DIXWS
modifications: D-aspartic acid at position 1; position 3 (X) is the non-natural residue F70 = ethylbenzene
notes: as for B1
[3]
  % inhibition 100 µM: 54.2%
[4]
  Kd: 2.9 µM
[5]
  % inhibition 50 µM: 88.6%
  IC50: 11.9 µM
